From article PMC12205872, “ESSENTIAL MEIOTIC ENDONUCLEASE 1 is required for chloroplast development and DNA repair in rice”

Experiments:
[1] = target: T1, OsEME1 (MBP removed by TEVp) (Oryza sativa L. japonica cv. KY131, UniProt Q0J9J6 1-650); assay: EMSA; 20 uM protein, 1 mM Mg2+, 5 mM ATP; EMSA/cleavage: 25 mM Tris-HCl pH 7.5, 1 mM MgCl2, 100 mg/mL BSA (so in the source), 1 mM DTT, 5 mM ATP, 2.5 uM Cy5 substrate, 20 uM protein, 30 C, 15% TBE-PAGE after; conditions: protein: recombinant, tags: MBP cleaved by TEVp, splayed Y: X1 1-25 paired with X2 26-50, 25 nt unpaired arms
T1 sequence: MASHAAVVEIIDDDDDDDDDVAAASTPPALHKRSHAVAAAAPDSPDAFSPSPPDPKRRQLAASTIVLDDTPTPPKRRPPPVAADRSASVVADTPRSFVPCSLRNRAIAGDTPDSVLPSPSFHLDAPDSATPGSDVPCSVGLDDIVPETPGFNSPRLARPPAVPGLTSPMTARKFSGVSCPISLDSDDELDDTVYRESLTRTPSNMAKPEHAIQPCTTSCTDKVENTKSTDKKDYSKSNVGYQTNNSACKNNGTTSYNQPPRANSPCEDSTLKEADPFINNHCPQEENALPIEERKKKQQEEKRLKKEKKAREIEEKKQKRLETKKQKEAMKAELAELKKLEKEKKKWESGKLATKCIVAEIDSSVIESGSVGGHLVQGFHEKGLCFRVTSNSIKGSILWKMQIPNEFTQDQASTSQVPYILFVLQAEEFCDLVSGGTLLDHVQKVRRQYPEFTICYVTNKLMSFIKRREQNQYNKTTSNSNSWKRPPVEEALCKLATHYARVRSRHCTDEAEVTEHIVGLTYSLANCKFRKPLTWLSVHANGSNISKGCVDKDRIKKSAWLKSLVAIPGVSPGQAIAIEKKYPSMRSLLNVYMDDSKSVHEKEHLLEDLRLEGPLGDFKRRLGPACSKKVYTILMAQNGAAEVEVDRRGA

[2] = target: T2, OsEME1-MBP (MBP fusion, used in MST) (Oryza sativa L. japonica cv. KY131, UniProt Q0J9J6 1-650); assay: MST; 100 nM DNA, 30 C; substrate called Y-Flag in Methods; EMSA/cleavage: 25 mM Tris-HCl pH 7.5, 1 mM MgCl2, 100 mg/mL BSA (so in the source), 1 mM DTT, 5 mM ATP, 2.5 uM Cy5 substrate, 20 uM protein, 30 C, 15% TBE-PAGE after; conditions: protein: recombinant; tags: MBP; splayed Y: X1 1-25 paired with X4 26-50; 25 nt unpaired 3' arm of X1 and 5' arm of X4
T2 sequence: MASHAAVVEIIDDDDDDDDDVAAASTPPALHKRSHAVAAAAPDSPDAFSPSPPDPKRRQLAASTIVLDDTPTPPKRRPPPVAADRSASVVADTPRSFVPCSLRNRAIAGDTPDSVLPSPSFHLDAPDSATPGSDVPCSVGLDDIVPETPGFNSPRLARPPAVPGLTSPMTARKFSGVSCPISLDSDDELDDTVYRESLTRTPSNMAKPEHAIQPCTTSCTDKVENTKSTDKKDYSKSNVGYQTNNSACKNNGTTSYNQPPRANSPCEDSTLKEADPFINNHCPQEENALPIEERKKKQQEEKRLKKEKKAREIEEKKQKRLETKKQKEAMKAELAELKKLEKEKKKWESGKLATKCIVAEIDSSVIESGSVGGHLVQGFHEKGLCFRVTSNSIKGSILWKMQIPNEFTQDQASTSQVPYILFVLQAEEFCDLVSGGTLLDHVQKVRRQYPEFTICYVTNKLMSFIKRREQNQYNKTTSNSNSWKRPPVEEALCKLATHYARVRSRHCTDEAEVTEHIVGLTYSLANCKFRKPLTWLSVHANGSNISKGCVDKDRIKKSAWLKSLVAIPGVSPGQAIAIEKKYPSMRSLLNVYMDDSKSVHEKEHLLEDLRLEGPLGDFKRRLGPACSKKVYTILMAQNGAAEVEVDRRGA

[3] = target: T3, OsMUS81 (MBP removed by TEVp) (Oryza sativa L. japonica cv. KY131, UniProt Q8GT06 1-660); assay: EMSA; 1 mM Mg2+, 5 mM ATP; not responsible for cleavage; EMSA/cleavage: 25 mM Tris-HCl pH 7.5, 1 mM MgCl2, 100 mg/mL BSA (so in the source), 1 mM DTT, 5 mM ATP, 2.5 uM Cy5 substrate, 20 uM protein, 30 C, 15% TBE-PAGE after; conditions: protein: recombinant, tags: MBP cleaved by TEVp, label: Cy5 on X1 (3' end)
T3 sequence: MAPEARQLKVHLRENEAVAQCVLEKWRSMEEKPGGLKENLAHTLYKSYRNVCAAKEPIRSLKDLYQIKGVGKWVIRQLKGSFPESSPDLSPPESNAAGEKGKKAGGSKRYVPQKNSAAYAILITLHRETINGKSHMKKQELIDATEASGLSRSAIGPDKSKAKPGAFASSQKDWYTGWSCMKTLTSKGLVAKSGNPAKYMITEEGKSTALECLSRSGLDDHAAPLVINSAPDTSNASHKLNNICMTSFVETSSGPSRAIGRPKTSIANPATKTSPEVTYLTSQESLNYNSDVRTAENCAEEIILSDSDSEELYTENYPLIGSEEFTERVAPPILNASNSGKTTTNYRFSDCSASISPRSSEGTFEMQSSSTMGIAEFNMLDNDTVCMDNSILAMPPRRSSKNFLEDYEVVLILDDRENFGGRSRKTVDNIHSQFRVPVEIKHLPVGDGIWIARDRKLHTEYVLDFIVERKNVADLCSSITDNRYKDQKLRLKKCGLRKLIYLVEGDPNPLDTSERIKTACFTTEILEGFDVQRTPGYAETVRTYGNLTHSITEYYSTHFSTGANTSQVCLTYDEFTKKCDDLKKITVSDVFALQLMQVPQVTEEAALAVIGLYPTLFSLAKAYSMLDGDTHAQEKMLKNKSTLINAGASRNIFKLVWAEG

B1: OsGLK2-Y12 (mixed)
DNA 1: GAAGAAGAAGGACGACGAGGAAAGGTCGTCGTCGTTGCCGGAGGAGAAAG
DNA 2: CTCCGTCGTCACCGCGCTCAGGACCCCTTTCCTCGTCGTCCTTCTTCTTC
B1: binds ([1]; label: 5' Cy5 on GLK2 X1).

B2: OsGLK1-Y12 (mixed)
DNA 1: CGTCGATGACATAGACTTCGGGGACTTCTTCCTGAGGCTGGAGGACGGTG
DNA 2: GAAGTCGGTGAAGATCTCGGCCGGGGTCCCCGAAGTCTATGTCATCGACG
B2: binds ([1]; label: 5' Cy5 on GLK1 X1).

B3: Y12 (mixed)
DNA 1: GACGCTGCCGAATTCTGGCTTGCTAGGACATCTTTGCCCACGTTGACCCG
DNA 2: GCGATAGTCTCTAGACAGCATGTCCTAGCAAGCCAGAATTCGGCAGCGTC
For B3, the Kd [2] was 16.3 ± 2.16 µM.

B4: X12 (structured_DNA)
DNA 1: GACGCTGCCGAATTCTGGCTTGCTAGGACATCTTTGCCCACGTTGACCCG
DNA 2: CGGGTCAACGTGGGCAAAGATGTCCTAGCAATGTAATCGTCTATGACGTC
DNA 3: GACGTCATAGACGATTACATTGCTAGGACATGCTGTCTAGAGACTATCGC
DNA 4: GCGATAGTCTCTAGACAGCATGTCCTAGCAAGCCAGAATTCGGCAGCGTC
B4: binds ([3]; four-way Holliday junction with 12-bp mobile homologous core).

B5: pre-X12 (mixed)
DNA 1: GACGCTGCCGAATTCTGGCTTGCTAGGACATCTTTGCCCACGTTGACCCG
DNA 2: CGGGTCAACGTGGGCAAAGATGTCCTAGCAATGTAATCGTCTATGACGTC
DNA 3: GCGATAGTCTCTAGACAGCATGTCCTAGCAAGCCAGAATTCGGCAGCGTC
B5: binds ([3]; three-strand junction: X1 1-25 with X4 26-50, X1 26-50 with X2 1-25, X2 3' and X4 5' arms single-stranded).
